Ends that are not written are not given here.

Assay [1] has as its target T1, PPARγ ligand-binding domain, wild type, His-hPPARγ (231–505) (human, UniProt P37231-1 231-505).
T1 chain: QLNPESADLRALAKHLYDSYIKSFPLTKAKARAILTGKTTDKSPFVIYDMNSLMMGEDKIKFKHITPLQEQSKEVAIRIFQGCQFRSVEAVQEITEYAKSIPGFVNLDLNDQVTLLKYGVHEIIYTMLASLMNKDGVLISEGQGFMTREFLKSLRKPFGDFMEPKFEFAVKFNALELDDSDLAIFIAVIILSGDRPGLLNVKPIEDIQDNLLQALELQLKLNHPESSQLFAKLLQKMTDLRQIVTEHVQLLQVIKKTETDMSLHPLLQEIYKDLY
In words: MST; apo (no ligand).

Assay [2] deals with T1, PPARγ ligand-binding domain, wild type, …. In words: MST; with GW1929.
For assay [3], the target named is T2, PPARγ ligand-binding domain, wild type, His-hPPARγ (231–505) (human, UniProt P37231-1 231-505).
T2 construct: Cloned in pET15b; also called PPARγ LBD WT; PPARγ WT; source: E. coli BL21 DE3, purified (Ni-NTA, size exclusion on Superdex 200)
T2 sequence (looked up): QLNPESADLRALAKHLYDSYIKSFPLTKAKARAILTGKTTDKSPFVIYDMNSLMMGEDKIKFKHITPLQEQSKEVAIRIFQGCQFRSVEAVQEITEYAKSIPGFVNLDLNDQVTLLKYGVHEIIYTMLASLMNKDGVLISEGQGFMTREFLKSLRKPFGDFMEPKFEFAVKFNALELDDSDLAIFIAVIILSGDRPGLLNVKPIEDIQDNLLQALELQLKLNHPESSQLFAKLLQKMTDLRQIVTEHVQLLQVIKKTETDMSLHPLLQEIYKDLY
Nature of the assay: MST; no ligand; unlabeled PPARγ LBD (100 µM to 2 nM) titrated into 150 nM fluorescent PGC1α peptide; 20 mM Tris pH 8.0, 200 mM NaCl, 1 mM TCEP, 0.05% Tween 20, 25 °C; apparent Kd. The conditions noted are these: both partners purified.

For assay [4], the target named is T1, PPARγ ligand-binding domain, wild type, …. Nature of the assay: MST; with rosiglitazone.
The target in assay [5] is T2, PPARγ ligand-binding domain, wild type, …. Nature of the assay: native MS; native electrospray MS, 5 µM protein in 200 mM ammonium acetate pH 6.8; GW1929 and coactivator peptide added. The conditions noted are these: both partners purified.

B1: fluorescent PGC1α peptide (137-EAEEPSLLKKLLLAPA-152) (peptide)
peptide: EAEEPSLLKKLLLAPA
modifications: also: fluorescent label (dye and position not given here)
notes: PGC1α (PPARGC1A) residues 137-152, NR1 LXXLL motif; also called fluorescently labeled PGC1α peptide; PGC1α NR1 motif; source: bought: Thermo-Fisher (synthetic peptide)
Take B1: the values for the Kd in assay [1], in assay [2] and in assay [4] were 1.7 µM, 0.38 µM and 1 µM, respectively. Moreover, the binding result in assay [3] is on record as “binds”.

B2: PGC1α peptide (139-EEPSLLKKLLLAPA-152) (peptide)
peptide: EEPSLLKKLLLAPA
notes: PGC1α (PPARGC1A) residues 139-152; source: synthetic peptide (IGBMC peptide synthesis common facility)
Regarding B2, the binding result in assay [5] is listed as “binds”.

The record behind these values is PMC6335423, “Recurrent activating mutations of PPARγ associated with luminal bladder tumors” (Nature Communications, 2019).
